Test results: the supplement of paper PMC10724198
± gives the standard deviation of the averaged measurements.

test system: Saccharomyces cerevisiae; experiment: protein stability index of tFT-peptide fusion (C-terminal peptide) (PSI (0-1 scale)); higher = more stable (slower turnover); conditions: genetic background: wild type; temperature: 30 C
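Further: PSI is a weighted mean of sequencing reads over stability bins, variants kept only with over 10 reads, mCherry proximal and sfGFP distal, peptide attached via GGGS linker.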

RSGGGRRGVGWV and RSGGVRCNDVRR are within error of each other in protein stability index: 0.641 ± 0.067 for the first, 0.675 ± 0.05 for the second.

RSGSGGVAGRRE and RSLLLINRPTPP are within error of each other in protein stability index: 0.692 ± 0.022 for the first, 0.714 ± 0.015 for the second.

Going from RSLPSSPTPPED to RSLVALSRRLRG, the protein stability index falls from 0.755 ± 0.081 to 0.6374 ± 0.0023.

Compared with RSLWGPRVGVFA, RSPLNTAPLRNR is higher in protein stability index: 0.594 ± 0.014 for the first, 0.682 ± 0.025 for the second.

RSPRSSSPHPIY and RSPSCSPSAVPL are within error of each other in protein stability index: 0.7649 ± 0.006 for the first, 0.738 ± 0.063 for the second.

RSQIHEILLYLF and RSQRRWCSKIRV are within error of each other in protein stability index: 0.492 ± 0.082 for the first, 0.625 ± 0.095 for the second.

RSRLPPPPLLFP and RSRLPTPRLYPP are within error of each other in protein stability index: 0.702 ± 0.048 for the first, 0.708 ± 0.01 for the second.

RSRPPPPPLLFP and RSRSKKKKRKQY are within error of each other in protein stability index: 0.701 ± 0.043 for the first, 0.671 ± 0.042 for the second.

Compared with RSRTSKGGNFII, RSSNRRAIRSHD is higher in protein stability index: 0.6766 ± 0.0053 for the first, 0.7106 ± 0.0019 for the second.

Going from RSTPRPSSRDSL to RSTQRWAVAWSG, the protein stability index falls from 0.7789 ± 0.006 to 0.678 ± 0.09.

RSVPLLNPGFHY and RSYSSTGAGDDK are within error of each other in protein stability index: 0.663 ± 0.026 for the first, 0.721 ± 0.15 for the second.

RTAGSARIESAL and RTDALKVVADMI are within error of each other in protein stability index: 0.645 ± 0.017 for the first, 0.682 ± 0.034 for the second.

RTEMASLERKSF and RTGGIVATRASE are within error of each other in protein stability index: 0.696 ± 0.017 for the first, 0.779 ± 0.13 for the second.

RTHPPADAWYLS and RTPMAIDALCGS are within error of each other in protein stability index: 0.698 ± 0.035 for the first, 0.637 ± 0.045 for the second.

First: RTPPLPLLPPHP
Second: RTQKNMKKSYCG
The protein stability index of the first is higher: 0.788 ± 0.052 for the first, 0.63 ± 0.0075 for the second.

First: RTQMLIIDKRNS
Second: RTRMSEGECIST
The protein stability index of the first is lower: 0.6437 ± 0.0028 for the first, 0.708 ± 0.053 for the second.

RTRPAMSRCSKR and RTRRRQELNHSK are within error of each other in protein stability index: 0.704 ± 0.045 for the first, 0.735 ± 0.2 for the second.

RTSNARLLPRIG and RVCYVYIGVTMH are within error of each other in protein stability index: 0.681 ± 0.034 for the first, 0.634 ± 0.19 for the second.

RVDRVFGGFGGS and RVFGSFLSGEQF are within error of each other in protein stability index: 0.724 ± 0.14 for the first, 0.70035 ± 0.00058 for the second.

Compared with RVFTGLCRPFGV, RVGERGEGGGVV is lower in protein stability index: 0.736 ± 0.012 for the first, 0.638 ± 0.014 for the second.

Going from RVGYVPNFFCVL to RVIIWDRRFLAG, the protein stability index rises from 0.6254 ± 0.0038 to 0.6793 ± 0.0026.

RVIVRGREIEIV and RVLDNYLTDYCL are within error of each other in protein stability index: 0.6782 ± 0.0018 for the first, 0.675 ± 0.061 for the second.

RVLPSDSPVAPA and RVLRKIWEWKKG are within error of each other in protein stability index: 0.667 ± 0.044 for the first, 0.685 ± 0.051 for the second.

Going from RVLRREKPVVHC to RVLVRLFGRGKA, the protein stability index rises from 0.603 ± 0.008 to 0.688 ± 0.025.

First: RVLVSPPPPLPS
Second: RVMELEGRSKLK
The protein stability index of the first is higher: 0.688 ± 0.026 for the first, 0.633 ± 0.026 for the second.

RVQAVTNKVAAR and RVRCPVVSGGRG are within error of each other in protein stability index: 0.692 ± 0.012 for the first, 0.707 ± 0.099 for the second.

Compared with RVRSKNIKIRWK, RVTRPSARLLSP is lower in protein stability index: 0.798 ± 0.029 for the first, 0.639 ± 0.084 for the second.

RVVDAPPSGCRS and RVVGCPPLLLPP are within error of each other in protein stability index: 0.688 ± 0.037 for the first, 0.639 ± 0.035 for the second.

First: RVWRLIGFHVSS
Second: RVYFGRPRSIVL
The protein stability index of the first is higher: 0.713 ± 0.012 for the first, 0.656 ± 0.025 for the second.

Compared with RVYKCNMKNNSK, RWGANSVSLEGE is higher in protein stability index: 0.661 ± 0.018 for the first, 0.737 ± 0.02 for the second.

RWGCVGWKVVGG and RWGGGQRLSRGT are within error of each other in protein stability index: 0.709 ± 0.1 for the first, 0.7082 ± 0.0037 for the second.

RWGGWFCRLPIG and RYGARAGPPVNL are within error of each other in protein stability index: 0.698 ± 0.05 for the first, 0.68 ± 0.054 for the second.

RYGHSVLQSGIS and RYLSVPGLEIPK are within error of each other in protein stability index: 0.73 ± 0.042 for the first, 0.677 ± 0.068 for the second.

Going from RYRPSPPPPPPH to RYVSCLSIPCLL, the protein stability index falls from 0.762 ± 0.054 to 0.6373 ± 0.0018.

RYYNDKKEKNIL and SACRVGKSILDT are within error of each other in protein stability index: 0.706 ± 0.0085 for the first, 0.728 ± 0.057 for the second.

SACVEQVHLRWF and SAFFSAWVLVLD are within error of each other in protein stability index: 0.642 ± 0.092 for the first, 0.555 ± 0.024 for the second.

SAGAPRMPARGG and SAKQTYFKRVAQ are within error of each other in protein stability index: 0.691 ± 0.071 for the first, 0.66 ± 0.042 for the second.

First: SALLLPRARPPD
Second: SALRALRPGSLP
The protein stability index of the first is lower: 0.634 ± 0.055 for the first, 0.806 ± 0.11 for the second.

SALSKYFLSVRL and SAPFSPSLTHHP are within error of each other in protein stability index: 0.633 ± 0.012 for the first, 0.742 ± 0.14 for the second.

SAPLVHASSSPQ and SAPPPAPPPPPR are within error of each other in protein stability index: 0.722 ± 0.042 for the first, 0.702 ± 0.027 for the second.

Going from SAQHPSTRHRPP to SARLCPPRGGFR, the protein stability index rises from 0.6 ± 0.035 to 0.748 ± 0.018.

SARLTPDLPAPS and SARRAALGVWVV are within error of each other in protein stability index: 0.642 ± 0.017 for the first, 0.636 ± 0.026 for the second.

SASPHSPSPPSR and SASRPRRWGLAR are within error of each other in protein stability index: 0.627 ± 0.079 for the first, 0.609 ± 0.007 for the second.

SASVACFCGLVV and SATHLLADPAPG are within error of each other in protein stability index: 0.7 ± 0.023 for the first, 0.661 ± 0.088 for the second.

Compared with SATPSSLPLPPS, SAVGRTYGVIII is lower in protein stability index: 0.739 ± 0.029 for the first, 0.673 ± 0.029 for the second.

SAVRLGANLCRT and SAVVPYLGWSPV are within error of each other in protein stability index: 0.6979 ± 0.0057 for the first, 0.708 ± 0.015 for the second.

First: SCAPRSPCTPPP
Second: SCDIFIYTHLVS
The protein stability index of the first is higher: 0.718 ± 0.015 for the first, 0.612 ± 0.031 for the second.

First: SCFGVSRSAHFL
Second: SCFLAFSFLCLF
The protein stability index of the first is higher: 0.728 ± 0.027 for the first, 0.5 ± 0.0096 for the second.

First: SCFLISIPLGFV
Second: SCGMDLALGYAV
The protein stability index of the first is lower: 0.5678 ± 0.0055 for the first, 0.689 ± 0.061 for the second.

SCPPLKYNNKTY and SCPTPRFPQCSS are within error of each other in protein stability index: 0.66 ± 0.015 for the first, 0.633 ± 0.034 for the second.

Going from SCRLYIKVDKSA to SCVDHLGCHSSG, the protein stability index rises from 0.6464 ± 0.0034 to 0.739 ± 0.029.

SCYLLDFGCIWV and SDFLTYAEARLD are within error of each other in protein stability index: 0.646 ± 0.0083 for the first, 0.72 ± 0.12 for the second.

SDKDIYQRLSYE and SDSAPSPPAFLP are within error of each other in protein stability index: 0.643 ± 0.036 for the first, 0.6569 ± 0.0025 for the second.

Compared with SDVKFGFCGVAS, SEAFDSSARRAL is lower in protein stability index: 0.655 ± 0.028 for the first, 0.541 ± 0.043 for the second.

SEEGMGRCSDEE and SEFKLVVGSRSD are within error of each other in protein stability index: 0.731 ± 0.028 for the first, 0.715 ± 0.032 for the second.

SEGKQYITGRWK and SELRFALCPAFL are within error of each other in protein stability index: 0.702 ± 0.084 for the first, 0.666 ± 0.019 for the second.

SERPVPTSISLR and SERRVKKIEEQI are within error of each other in protein stability index: 0.682 ± 0.0069 for the first, 0.77 ± 0.084 for the second.

SERYFFFQCGPH and SETGSGGLFSLP are within error of each other in protein stability index: 0.6802 ± 0.0033 for the first, 0.693 ± 0.018 for the second.

Going from SEVIIAISNKNH to SFACLLGRGWVD, the protein stability index rises from 0.5275 ± 0.0019 to 0.719 ± 0.06.

SFADFVFMDHCA and SFAKHRNASMGR are within error of each other in protein stability index: 0.696 ± 0.062 for the first, 0.691 ± 0.04 for the second.

SFERPAQAHALA and SFGSPLFFFPFL are within error of each other in protein stability index: 0.698 ± 0.012 for the first, 0.736 ± 0.036 for the second.

First: SFIGEDHQCVFY
Second: SFILRRISSAIS
The protein stability index of the first is higher: 0.723 ± 0.013 for the first, 0.645 ± 0.014 for the second.

Compared with SFISPFFCTRPV, SFLFWFFASGWL is lower in protein stability index: 0.638 ± 0.012 for the first, 0.56 ± 0.047 for the second.

First: SFLHLLCSFVLL
Second: SFMPFVLPLSSP
The protein stability index of the first is lower: 0.51 ± 0.039 for the first, 0.71 ± 0.023 for the second.

Going from SFPGVRHSTSDS to SFPYPHRDLVTP, the protein stability index rises from 0.676 ± 0.017 to 0.7114 ± 0.0016.

SFSLAPSPPLLP and SFSSLVLSSCFW are within error of each other in protein stability index: 0.721 ± 0.042 for the first, 0.706 ± 0.026 for the second.

SGDSVAVGVTGT and SGDVGGGHWVGG are within error of each other in protein stability index: 0.689 ± 0.056 for the first, 0.729 ± 0.013 for the second.

SGFLPPRFLSPS and SGFPSCFRPSFY are within error of each other in protein stability index: 0.6895 ± 0.0012 for the first, 0.702 ± 0.021 for the second.

SGFRALWGLFAL and SGFYQNTCSSLV are within error of each other in protein stability index: 0.683 ± 0.014 for the first, 0.756 ± 0.12 for the second.

SGGAGGSCMRYV and SGGGGGWQEEAG are within error of each other in protein stability index: 0.704 ± 0.022 for the first, 0.662 ± 0.027 for the second.

SGGIPGSPNVRL and SGGRLVVCEGPG are within error of each other in protein stability index: 0.657 ± 0.01 for the first, 0.65 ± 0.087 for the second.

SGGRRRAGKGAT and SGGVLSNGRLAA are within error of each other in protein stability index: 0.69 ± 0.049 for the first, 0.684 ± 0.052 for the second.

SGHRLTYEFFPT and SGLFFRWCRLSW are within error of each other in protein stability index: 0.741 ± 0.074 for the first, 0.638 ± 0.031 for the second.

First: SGLFGDAVPCCV
Second: SGNYRGGLTVFS
The protein stability index of the first is lower: 0.632 ± 0.03 for the first, 0.711 ± 0.023 for the second.

Compared with SGPGPGAVGATC, SGPTFRWAGVLC is lower in protein stability index: 0.702 ± 0.057 for the first, 0.593 ± 0.014 for the second.

SGRGVEVGGEGE and SGRIHLLHSPWV are within error of each other in protein stability index: 0.752 ± 0.053 for the first, 0.712 ± 0.052 for the second.

First: SGRMAIYVFGVV
Second: SGSMHWTDPPGS
The protein stability index of the first is lower: 0.579 ± 0.01 for the first, 0.6747 ± 0.0051 for the second.

First: SGSVLHEFILVV
Second: SGTLYELNAVVV
The protein stability index of the first is lower: 0.543 ± 0.028 for the first, 0.644 ± 0.016 for the second.

SGTPTFTPSYPS and SGTVRRQCGNPD are within error of each other in protein stability index: 0.717 ± 0.026 for the first, 0.69752 ± 0.00027 for the second.

SGVALFFFPPLL and SGVGLAETAGDD are within error of each other in protein stability index: 0.71 ± 0.039 for the first, 0.68 ± 0.027 for the second.
